Test results published in patent US20230374116A1 (ROSALIND FRANKLIN INSTITUTE, published 2023).

B1: C1 (VHH)
VHH: QVQLVESGGGLVQPGGSLRLSCAASGFTNDFYSIAWFRQAPGKEREGVSWLSVSDNTPTYVDSVKDRFTISRHNANNTVYLQMNMLKPEDTAIYYCAAGRFAGRDTWPSSYDYWGQGTQVTVSS
B2: H3 (VHH)
VHH: QVQLVESGGGLVKTGGSLRLSCAASGRTFSTYSMGWFRQAPGKEREFVAGMRWTGSSTFYSDSVKGRFTVSRNNAKDTVYLHMNSLKPEDTAVYYCAITTIVRAYYTEYTEADFGSWGQGTQVTVSS
B3: C5 (VHH)
VHH: QVQLVESGGGSVQAGGSLTLSCVASGVTLGRHAIGWFRQAPGKERERVSCIRTFDGITSYVESTKGRFTISSNNAMNTVYLQMNSLKPEDTAVYFCALGVTAACSDNPYFWGQGTQVTVSS
notes: also called VHH C5
B4: F2 (VHH)
VHH: QVQLVESGGGLVQAGGSLRLACIASGRTFHSYVMAWFRQAPGKEREFVAAISWSSTPTYYGESVKGRFTISRDNAKNTVYLQMNRLKPEDTAVYFCAADRGESYYYTRPTEYEFWGQGTQVTVSS
notes: also called VHH F2
B5: C5 trimer (VHH)
chain: QVQLVESGGGSVQAGGSLTLSCVASGVTLGRHAIGWFRQAPGKERERVSCIRTFDGITSYVESTKGRFTISSNNAMNTVYLQMNSLKPEDTAVYFCALGVTAACSDNPYFWGQGTQVTVSSGSGSGSQVQLVESGGGSVQAGGSLTLSCVASGVTLGRHAIGWFRQAPGKERERVSCIRTFDGITSYVESTKGRFTISSNNAMNTVYLQMNSLKPEDTAVYFCALGVTAACSDNPYFWGQGTQVTVSSGSGSGSQVQLVESGGGSVQAGGSLTLSCVASGVTLGRHAIGWFRQAPGKERERVSCIRTFDGITSYVESTKGRFTISSNNAMNTVYLQMNSLKPEDTAVYFCALGVTAACSDNPYFWGQGTQVTVSS
notes: also called trimeric C5 nanobody; C5-6GS-C5-6GS-C5
B6: C1 trimer (VHH)
chain: QVQLVESGGGLVQPGGSLRLSCAASGFTNDFYSIAWFRQAPGKEREGVSWLSVSDNTPTYVDSVKDRFTISRHNANNTVYLQMNMLKPEDTAIYYCAAGRFAGRDTWPSSYDYWGQGTQVTVSSGSGSGSQVQLVESGGGLVQPGGSLRLSCAASGFTNDFYSIAWFRQAPGKEREGVSWLSVSDNTPTYVDSVKDRFTISRHNANNTVYLQMNMLKPEDTAIYYCAAGRFAGRDTWPSSYDYWGQGTQVTVSSGSGSGSQVQLVESGGGLVQPGGSLRLSCAASGFTNDFYSIAWFRQAPGKEREGVSWLSVSDNTPTYVDSVKDRFTISRHNANNTVYLQMNMLKPEDTAIYYCAAGRFAGRDTWPSSYDYWGQGTQVTVSS
B7: H3 trimer (VHH)
chain: QVQLVESGGGLVKTGGSLRLSCAASGRTFSTYSMGWFRQAPGKEREFVAGMRWTGSSTFYSDSVKGRFTVSRNNAKDTVYLHMNSLKPEDTAVYYCAITTIVRAYYTEYTEADFGSWGQGTQVTVSSGAVLAPQVQLVESGGGLVKTGGSLRLSCAASGRTFSTYSMGWFRQAPGKEREFVAGMRWTGSSTFYSDSVKGRFTVSRNNAKDTVYLHMNSLKPEDTAVYYCAITTIVRAYYTEYTEADFGSWGQGTQVTVSSGSGSGSQVQLVESGGGLVKTGGSLRLSCAASGRTFSTYSMGWFRQAPGKEREFVAGMRWTGSSTFYSDSVKGRFTVSRNNAKDTVYLHMNSLKPEDTAVYYCAITTIVRAYYTEYTEADFGSWGQGTQVTVSS

Target: Alpha RBD

First: B1
Second: B2
The Kd of the first is 7.1-fold higher: 0.725 nM for the first, 0.102 nM for the second. The second binds more tightly here.

Going from B3 to B4, the Kd falls from 2.52 nM to 0.047 nM (54-fold).

Going from B1 to B2, the T1/2 falls from 21 min to 10 min (2.1-fold).

First: B3
Second: B4
The T1/2 of the first is 51-fold lower: 1 min for the first, 51 min for the second.

Target: Alpha RBD
Remark: another data set of the same source

First: B5
Second: B6
The Kd of the first is 2.5-fold lower: 0.029 nM for the first, 0.073 nM for the second.

B7 gave a Kd of 0.006 nM.

First: B5
Second: B6
The T1/2 of the first is 3.8-fold lower: 41 min for the first, 154 min for the second.

B7 was tested, and the T1/2 was 98 min.

Compared with B6, B7 is 1.6-fold higher in koff: 7.4e-05 s⁻¹ for the first, 0.00012 s⁻¹ for the second.

Going from B6 to B7, the kon rises from 1e+06 M⁻¹ s⁻¹ to 1.8e+07 M⁻¹ s⁻¹ (18-fold).
